Test results reported in US12692533B2, “Methods and compositions for noninvasive detection of organ transplant rejection” (Georgia Tech Research Corporation, priority 2016, dated 2026).
Square brackets hold non-standard residues; d marks the D form. Ends that are not written are not given here.

Legend:
[1] = molecular target: T1, murine Granzyme B (Mus musculus, UniProt P04187); test: In vitro protease cleavage assay with recombinant GzmB; type: biochemical; conditions: substrate conjugated to IONPs, library of 13 candidate substrates
T1 construct: purchased Peprotech
T1 sequence (P04187 21-247): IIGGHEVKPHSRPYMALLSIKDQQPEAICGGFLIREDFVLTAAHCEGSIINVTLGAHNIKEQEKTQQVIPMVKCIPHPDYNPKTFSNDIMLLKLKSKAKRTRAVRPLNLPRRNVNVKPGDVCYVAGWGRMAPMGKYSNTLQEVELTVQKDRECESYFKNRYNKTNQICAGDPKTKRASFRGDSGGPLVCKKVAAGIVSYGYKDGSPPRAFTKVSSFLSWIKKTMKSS
Method: (§1) Synthetic biomarkers (6 nM by NP, 300 nM by peptide) were incubated in PBS+1% bovine serum albumin (BSA; Sigma) at 37° C. with murine Granzyme B (0.2 μM, Peprotech), human thrombin (HaemTech), mouse thrombin (HaemTech), mouse plasmin (HaemTech), Clr (Sigma), Cls (Sigma), Factor D (Sigma), Factor I (Sigma), MASP2 (Biomatik). Sample fluorescence were measured for 60 minutes using Cytation 5 plate reader (Biotek). To optimize GzmB substrate, a library of potential substrates was synthesized by Tufts University Core Facility peptide synthesis service and conjugated to IONPs. Cleavage assays of nanoparticles decorated with these substrates with recombinant GzmB were performed, and data was fitted to compare initial cleavage velocities. To determine Michaelis-Menten constants, cleavage assays with GzmB were performed at different substrate concentrations. To initiate coagulation cascade, citrated plasma was mixed with synthetic biomarkers before addition of calcium chloride (15 mM, Sigma). To initiate complement activation, Control Human Serum (Sigma) was mixed with synthetic biomarkers before addition of Heat Aggregated Gamma Globulin (HAGG; Quidel) per the manufacturer's protocol. After measuring fluorescence for 1 hour, supernatants were collected and measured for formation of MAC complex using Micro Vue CH50 Eq EIA Kit (Quidel).

[2] = tested on: proteases in the coagulation and complement cascades; test: Specificity: cleavage by key recombinant proteases and activated coagulation and complement cascades; type: biochemical; conditions: recombinant proteases; plasma + Ca2+; serum + HAGG; fluorescence
Method: as §1

[3] = in plasma, DLS
Description: DLS measurements of synthetic biomarkers were done in PBS or mouse plasma at RT using Zetasizer Nano ZS (Malvern).

[4] = molecular target: T2, GzmB (Mus musculus, UniProt P04187); test: Urinary prediction of acute cellular rejection in skin graft mouse model; type: in vivo, mice
T2 construct: cleaved by GzmB secreted by alloreactive T cells; endogenous in cells; host or cells: alloreactive CD8 T cells of C57BL/6 recipient mice bearing BALB/c skin grafts
T2 sequence (P04187 21-247): T1 sequence (P04187 21-247)
Method: (§2) To track cleaved fragments after in vivo GzmB cleavage, on day 7 post-transplant, VT750-labelled synthetic biomarkers (10 nmol by peptides) were administered to skin graft mice. Major organs were excised and imaged with Odyssey CLx Imaging System (LI-COR) while mouse bladders were imaged with IVIS Spectrum CT Imaging System (PerkinElmer) after 90 minutes. All urinalysis experiments were done in paired setup. 4 days before and 7 days after surgeries, skin graft mice were administered with FITC-labelled Synthetic biomarkers (10 nmol by peptides). Urine were collected after 90 minutes by placing mice over 96-well plates. FITC in urine was purified by a magnetic separation assay using Dynabeads (Thermo, 65501) coated with anti-FITC (GeneTex, GTX10257). Fluorescent signals were measured with Cytation 5 Plate Reader (Biotek). Concentrations of FITC were calculated using a free FITC ladder and normalized with urine volume. For CD8 depletion study, mice were given anti-mouse CD8 (clone: 53-6.7, BioXCell) for 3 consecutive days following with booster shots every 3 days after. Flow cytometry analysis of splenocytes and lymphocytes were performed with anti-mouse CD3 (clone: 17A2, Biolegend), anti-mouse CD4 (clone: RM4-5, Biolegend), anti-mouse CD8 (clone: KT15, Serotec) to confirm success of depletion.

[5] = tested on: T cells from skin graft mice with BALB/c donor splenocytes; test: NP assay sensing alloreactive T cell killing (coculture supernatants); type: cell-based, mouse; conditions: cocultures containing T cells from mice bearing allografts
Method: (§3) To sense transgenic T cell killing, CD8+OT1 T cells were isolated and activated per above protocol. On day 5 post activation, 1x10^6 OT1 T cells were coincubated with 1x10^6 EL4 or EG7-OVA target cells for 2 hours at 37° C. Coculture supernatants were mixed with synthetic biomarkers (2 nM by NP, 100 nM by peptides) and fluorescence were monitored for 1 hour at 37° C. To sense alloreactive T cell killing, on day 7 post-transplant, CD8 T cells were isolated from splenocytes and lymphocytes of skin graft mice. 5×10^5 CD8 T cells from skin graft mice were restimulated with 5×10^5 splenocytes from BALB/c Mice (Charles River) for 6 hours at 37° C. Coculture supernatants were mixed with synthetic biomarkers (2 nM by NP, 100 nM by peptides) and fluorescence were monitored for 2 hours at 37° C.

[6] = tested on: OT1 T cells killing EG7-OVA target cells
Method: as §3

[7] = molecular target: T2, GzmB; test: Tracking in vivo GzmB cleavage by near infra-red imaging in skin graft mice
Method: as §2

[8] = tested on: membrane attack complex (MAC); type: biochemical, Human
Method: as §1

[9] = in vivo

Substance	rate of cleavage by recombinant GzmB [1]	rate of cleavage by recombinant GzmB ([1]; listed as AIEFD|SGc)	activation by proteases in the coagulation and complement cascades [2]	Z-average [3]	ROC area under the curve (AUC) ([4]; accepting isografts vs rejecting allografts)	post-graft urine signals compared to pre-graft signals ([4]; allograft mice, day 7 vs day -4)	post-graft urine signals with respect to pre-graft signals ([4]; naïve mice, isograft mice, allograft mice depleted of CD8 T cells)	activation kinetics [5]	sensing of cytotoxic signal (fluorescence) [6]	correlation of initial velocity of probe activation with secretory GzmB ([6]; coculture supernatant)	full body imaging bladder fluorescent signals ([7]; allograft vs isograft mice)	GzmB activity (fluorescent signal) in kidney, allograft mice with respect to isograft mice ([7]; day 7 post-transplant)	formation of membrane attack complex (MAC) [8]	tolerability [9]
AIEFDSGc (AIEFDSG[dC])	high rate of cleavage	highest rate of cleavage	–	–	–	–	–	–	–	–	–	–	–	–
synthetic biomarkers: PEG-coated iron oxide nanoparticles conjugated with GzmB peptide substrates carrying a fluorescent reporter (AIEFDSG[dC]; not fully specified; printed as AIEFDSGc; also: conjugated to PEG-coated iron oxide nanoparticle via Cys thiol and SIA, FITC reporter, position not given here)	–	–	not activated	47 nm	0.969	more than 2 fold	did not detect significant elevation	Increased activation kinetics	amplified cytotoxic signal	strongly correlated	only detected fluorescent signals from the bladders of allograft mice	3 fold	not detected	well tolerated
